This test addresses human apo-Calmodulin (cryo-EM complex) (human, UniProt P0DP23). In words: cryo-EM structure.

B1: full-length SidJ (cryo-EM complex) (enzyme)
chain: MFGFIKKVLDFFGVDQSEDNPSETAVETTDVSTKIKTTDTTQEESSVKTKTVVPTQPGGSVKPETIAPDQQKKHQIKTETTTSTTKQKGPKVTLMDGHVKQYYFARRGETSTHDTSLPPPVKVLSGRSIPLKEIPFEATRNELVQIYLTSIDKLIKSNKLNSIPSQQIASHYLFLRSLANSETDGIKKNQILSLAKPLGTYLASKEPHVWKMINELIEKSEYPIIHYLKNNRAHSNFMLALIHEYHKEPLTKNQSAFVQKFRDSSVFLFPNPIYTAWLAHSYDEDSSFNPMFRERLSTNFYHSTLTDNLLLRTEPKEVTLSSEHHYKKEKGPIDSSFRYQMSSDRLLRIQGRTLLFSTPQNDVVAVKVQKKGEPKSTLEEEFEMADYLLKHQRRLDVHSKLPQPLGQYSVKKSEILEISRGSLDFERFKTLIDDSKDLEVYVYKAPQSYFTYLHDKNQDLEDLTASVKTNVHDLFVLLREGIVFPQLADIFHTHFGEDEREDKGRYQALVQLLNVLQFQLGRIDKWQKAVEYVNLRSSGLADLGDSLPITSLFTSSDFTKHYFSELLTGGYHPTFFDKSSGTANSLFTGKRRLFGNYLYLNTIAEYLLVIQLTLGSYGDKVTRDMMDKPKKEAVWRELANVMFTSCAEAIHIMTGIPQSRALTLLKQRANIEKHFRQTQFWMTPDYSKLDEDTLQMEQYSIYSGEPEYEFTDKLVSGVGLSVDGVHQDLGGYNRESPLRELEKLLYATVTLIEGTMQLDKEFFKQLEQVEKILSGEIKTDANSCFEAVAQLLDLARPGCHFQKRLVLSYYEEAKLKYPSAPTDAYDSRFQVVARTNAAITIQRFWREARKNLSEKSDIDSEKPESERTTDKRL
Consider B1, for which the binding result is listed as “binds”.

These data come from article PMC6715450 (Nature, 2019).
